# According to patent publication US8835136B2, “Engineered amine dehydrogenases and methods of use thereof” (Georgia Tech Research Corporation, priority 2012, dated 2014):
# Where “and” joins values, the source holds several entries; their conditions need not be identical. Equal entries are not always repeated.
# B1: Wild Type: PheDH from Bacillus badius, SEQ ID NO:1 (protein, listed as Bacillus badius)
# chain: SLVEKTSIIKDFTLFEKMSEHEQVVFCNDPATGLRAIIAIHDTTLGPALGGCRMQPYNSVEEALEDALRLSKGMTYKCAASDVDFGGGKAVIIGDPQKDKSPELFRAFGQFVDSLGGRFYTGTDMGTNMEDFIHAMKETNCIVGVPEAYGGGGDSSIPTAMGVLYGIKATNKMLFGKDDLGGVTYAIQGLGKVGYKVAEGLLEEGAHLFVTDINEQTLEAIQEKAKTTSGSVTVVASDEIYSQEADVFVPCAFGGVVNDETMKQFKVKAIAGSANNQLLTEDHGRHLADKGILYAPDYIVNSGGLIQVADELYEVNKERVLAKTKHIYDAILEVYQQAELDQITTMEAANRMCEQRMAARGRRNSFFTSSVKPKWDIRN
# B2: C1-AmDH: chimeric AmDH: F-AmDH substrate binding domain with L-AmDH NAD-binding domain, SEQ ID NO:20 (protein)
# chain: SLVEKTSIIKDFTLFEKMSEHEQVVFCNDPATGLRAIIAIHDTTLGPALGGCRMQPYNSVEEALEDALRLSKGMTYSCAASDVDFGGGKAVIIGDPQKDKSPELFRAFGQFVDSLGGRFYTGTDMGTNMEDFIHAMKETNCIVGVPEAYGSSGNPSPATAYGVYRGMKAAAKEAFGSDSLEGKVVAVQGVGNVAYHLCRHLHEEGAKLIVTDINKEAVARAVEEFGAKAVDPNDIYGVECDIFAPCALGGIINDQTIPQLKAKVIAGSALNQLKEPRHGDMIHEMGIVYAPDYVINAGGCINVADELYGYNRERAMKKIEQIYDNIEKVFAIAKRDNIPTYVAADRMAEERIETMRKARSQFLQNGHHILSRRRAR
# What was measured:
# [1] = Reductive amination, spectrophotometric assay at 340 nm; assay type: biochemical; settings: 500 mM NH4Cl/NH4OH pH 9.6, 200 μM NADH, 25° C.
# Procedure: (§1) Activity of purified proteins was measured using a spectrophotometric assay at 340 nm, corresponding to the cofactor nicotinamide adenine dinucleotide (NADH, ε340=6220 M^−1 cm^−1) (Dawson, et al., Clarendon Press, (1989). For reductive amination, reactions took place in 500 mM NH4Cl/NH4OH at pH 9.6, with 200 μM NADH and 20 mM of the ketone substrate, unless otherwise specified. For oxidative deamination, reactions took place in 0.1 M NaHCO3/Na2CO3 buffer at pH 10.0, with 1 mM NAD+ with 10 mM of the amine substrate of interest. All reactions were performed at 25° C. unless otherwise specified. Enzyme was added in 10 μL aliquots in dilute concentrations. Enzyme concentrations varied upon activity levels with the substrate present, but were dilute enough to ensure linear conversion kinetics over the analytical time period (10 min to 30 min). Specific activities were then calculated from the stoichiometric conversion of cofactor as determine by the change in absorbance at 340 nm over time.
# [2] = Oxidative deamination, spectrophotometric assay at 340 nm; assay type: biochemical; settings: 0.1M Glycine pH 10.0, 1 mM NAD+, 25° C.
# Procedure: as §1, with “For oxidative deamination, reactions took place in 0.1 M NaHCO3/Na2CO3 buffer at pH 10.0, with 1 mM NAD+ with 10 mM of the amine substrate of interest.” left out
# [3] = Amination of phenylpyruvate; assay type: biochemical; settings: 500 mM NH4Cl/NH4OH pH 9.6, 200 μM NADH, 5 mM phenylpyruvate, 25° C.
# Procedure: (§2) The wild-type PheDH from B. badius was characterized to ensure proper expression and folding prior to mutation. […] KM values were determined for the substrates when possible, and corresponded well to those values found in literature (110). Additionally, the K1 value of ammonia was determined to be 5.0 M. The KM of phenylpyruvate could not be determined due to its high absorbance at the analytical wavelength. The wild-type enzyme was determined to be properly folded and active.
# Deamination of L-Phe = assay type: biochemical; settings: 0.1 M Glycine pH 10.0, 1 mM NAD+, 20 mM L-Phe, 25° C.
# Procedure: as §2
# [4] = Kinetic parameters for ammonia (PheDH / PheDH-AmDH); assay type: biochemical; settings: amination of phenylpyruvate; read-out: KM, NH3
# Procedure: as §2
# Kinetic parameters, kcat and KM, were determined for the enzyme and each of the reductive amination substrates; respectively. […] The kcat value for this AmDH enzyme with all three substrates saturated in aqueous NH4Cl/NH4OH buffer at pH 9.6 was 6.85 s^−1 at 25° C. This represents a near 15-fold enhancement above the maximum observed kcat of 0.46 s^−1 of the previously developed LeuDH-AmDH.
# [5] = C1-AmDH amination at 60° C. in 4 M ammonium formate buffer; assay type: biochemical
# Procedure: (§3) All ketone substrates for the amination direction were measured at 20 mM and dissolved at 60° C. in 4 M ammonium formate buffer. Enzyme specificity was measured at 60° C. for 5 min. with NADH as the cofactor at 340 nm.
# (§4) The values for acetophenone, pFPA; NADH and NH3 were determined and are summarized in Table XX, all measured at 60° C.
# [6] = as above; assay type: biochemical; settings: 20 mM
# Procedure: as §3
# C1-AmDH kinetic values = assay type: biochemical; settings: 60° C.
# Procedure: as §4
# [7] = C1-AmDH amine activity measured photometrically; assay type: biochemical
# Procedure: Activities were also measured photometrically with 100 mM (+/−) methylhenzylamine (0.58 U/mg) as well as 100 mM (R)-methylbenzylamine. (0.98 U/mg), 50 mM (R,S)-adamanylethlamine (0.04 U/mg) and determined the enantioselectivity for this enzyme to be (R).
# [8] = Temperature vs activity profile for C1-AmDH; assay type: biochemical
# Procedure: The temperature activity profile was determined over a wide range until the limits of the instrument were reached. […] In contrast it is barely active between 20-30° C., so all measurements for activity were determined routinely at 60° C. Product conversions were done at 40° C. and 50° C., due to the temperature limits for regeneration enzyme, FDH. Temperature activity profiles were determined for pFPA and acetophenone (FIGS. 22A and 22B).
# [9] = T50 after 30 min (T50^30) of C1-AmDH; assay type: physicochemical
# Procedure: The T50 (after 30 min—T50^30) was also determined for the C1-AmDH. The T50^30 value was determined to be dependent on the buffer, in PBS, the enzyme was staple for 30 min at 50 C, at 60 C an beyond the enzyme deactivated within the timescale of the experiment. In the presence of 4M ammonium formate buffer we found the T50^30 value was determined to be at 70 C.
# [10] = Substrate conversion using C1-AmDH and cb-FDH, chiral GC; assay type: biochemical
# Procedure: Product formation was characterized for two substrates. The test assay utilized the C1-AmDH in 24 h conversion at 40° C. with cofactor regeneration in a biphasic solvent system with heptane as the organic layer and 5 M ammonium formate as the aqueous layer. Conversions were also carried out at 50° C., which is the upper limit for the cofactor regeneration enzyme FDH.
# This is not a quantitative evaluation, since amines are more water soluble than their ketone counterparts and only the organic layer was used for chiral gas chromatography (GC). The peaks were compared to the corresponding standard amines and both determined to be R-specific (FIGS. 24A and 24B).
molecule,measurement,setting,value
B1,"Amination Activity 40 mM MIBK, kcat",[1],—No Activity—
same,"Deamination Activity 40 mM 1,3-DMBA, kcat",[2],—No Activity—
same,activity in the amination of phenylpyruvate,[3],greater than 257 U mg^−1
same,activity in the deamination of L-Phe,Deamination of L-Phe,39.5 U mg^−1
same,Km,[4],64.5 mM
B2,"kcat, Acetophenone",[5],0.24 s⁻¹
same,"kcat, pFPA",[5],1.24 s^−1
same,"Acetophenone, U/mg","[5]; 20 mM, 4 M ammonium formate",0.3 U/mg and 0.3019 U/mg
same,"Acetophenone, U/ml","[5]; 20 mM, 4 M ammonium formate",1.63 U/ml
same,"pFPA, U/mg","[5]; 20 mM, 4 M ammonium formate",1.7 U/mg and 1.725 U/mg
same,"pFPA, U/ml","[5]; 20 mM, 4 M ammonium formate",13.8 U/ml
same,Km,"[5]; read-out: KM, Acetophenone",5.2 mM
same,Km,"[5]; read-out: KM, pFPA",1.1 mM
same,"1,3-phenylbutanedione, U/mg",[6],0.06 U/mg
same,"1,3-phenylbutanedione, U/ml",[6],0.3 U/ml
same,"3-methyl-1-phenylbutanone, U/mg",[6],0.03 U/mg
same,"3-methyl-1-phenylbutanone, U/ml",[6],0.16 U/ml
same,"3-oxo-phenylbutyricacid ethylester, U/mg",[6],0 U/mg
same,"3-oxo-phenylbutyricacid ethylester, U/ml",[6],0 U/ml
same,"Adamantylmethylketone, U/mg",[6],0.07 U/mg
same,"Adamantylmethylketone, U/ml",[6],0 U/ml
same,"Benzophenone, U/mg",[6],0 U/mg
same,"Benzophenone, U/ml",[6],0 U/ml
same,"a-tetralone, U/mg",[6],0.1 U/mg and 0.1074 U/mg
same,"a-tetralone, U/ml",[6],0.58 U/ml
same,"b-tetralone, U/mg",[6],0 U/mg
same,"b-tetralone, U/ml",[6],0 U/ml
same,"dibenzylketone, U/ml",[6],1.39 U/ml
same,"pinacolone, U/mg",[6],0.1333 U/mg
same,"pinacolone, U/ml",[6],0.72 U/ml
same,"kcat, NADH",C1-AmDH kinetic values,0.92 s⁻¹
same,"kcat, NH3",C1-AmDH kinetic values,1.09 s⁻¹
same,Km,"C1-AmDH kinetic values; read-out: KM, NADH",0.04 mM
same,enantioselectivity,[7],(R)
same,"activity, (R,S)-adamanylethlamine",[7]; 50 mM,0.04 U/mg
same,"activity, (+/−) methylhenzylamine",[7]; 100 mM,0.58 U/mg
same,"activity, (R)-methylbenzylamine",[7]; 100 mM,0.98 U/mg
same,temperature activity profile,[8],did not show any decline of activity up to 80 °C
same,T50^30 value,"[9]; 4M ammonium formate buffer, 30 min",70 C
same,temperature at which stable for 30 min,[9]; in PBS,50 C
same,product formation from methylcyclohexanone,"[10]; 24 h, 40° C., heptane / 5 M ammonium formate",no product
same,enantiospecificity of product amines,"[10]; methylbenzylamine and p-fluorophenylproplyamin, chiral GC, organic layer",R-specific
